Columns and labels:
Assay in all cases: ELISA, B7 family protein immobilized on plate, serially diluted antibody
[1] = biological target: T1, Human B7-H4 protein, His Tag (human, UniProt Q7Z7D3 29-258)
T1 construct: Bought protein; also called ACRO B74-H5222; not shown: His tag
T1 sequence (looked up): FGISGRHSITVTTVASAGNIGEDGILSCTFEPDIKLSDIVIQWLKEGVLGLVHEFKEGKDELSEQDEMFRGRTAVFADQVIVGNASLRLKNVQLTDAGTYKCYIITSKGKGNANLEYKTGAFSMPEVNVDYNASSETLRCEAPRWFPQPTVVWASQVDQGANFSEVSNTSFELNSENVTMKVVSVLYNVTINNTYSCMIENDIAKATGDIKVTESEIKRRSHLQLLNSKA
Procedure: (§1) Human PD-Ll protein (see the table above), human B7-H2 protein, human B7-H3 protein, human B7-H4 protein, human B7-H5 protein, human B7-H6 protein, human B7-1 protein, human B7-2 protein, human PD-L2 protein, human B7-H7 protein, and human BTNL2 protein were separately immobilized on 96-well plates by incubation at 4° C. overnight. The 96-well plates were then blocked by incubation with 1% BSA in PBS at 37° C. for 1 h. After blocking, the 96-well plates were washed 3 times with PBST (PBS containing 0.05% Tween 20). […] After incubation, the 96-well plates were washed 3 times with PBST, incubated with a secondary antibody (see the table above) in binding buffer at 37° C. for 1 h, and then washed again. TMB was added for color development, and the reaction was stopped by 1 M H₂SO₄.

Human B7-H6 = biological target: T2, Human B7-H6 (human, UniProt Q68D85 25-262)
T2 construct: Bought protein; also called human B7-H6 protein; ACRO B76-H52H8
T2 sequence (looked up): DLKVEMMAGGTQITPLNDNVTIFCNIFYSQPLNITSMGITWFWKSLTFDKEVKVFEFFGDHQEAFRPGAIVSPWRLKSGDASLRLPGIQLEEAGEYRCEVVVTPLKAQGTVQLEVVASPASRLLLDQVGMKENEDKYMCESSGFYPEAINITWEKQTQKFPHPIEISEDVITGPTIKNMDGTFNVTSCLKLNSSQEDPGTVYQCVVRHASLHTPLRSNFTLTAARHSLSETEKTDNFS
Procedure: as §1

Human B7-H5, His Tag = biological target: T3, Human B7-H5, His Tag (human, UniProt Q9H7M9 33-194)
T3 construct: Bought protein; also called human B7-H5 protein; ACRO B75-H52H0; not shown: His tag
T3 sequence (looked up): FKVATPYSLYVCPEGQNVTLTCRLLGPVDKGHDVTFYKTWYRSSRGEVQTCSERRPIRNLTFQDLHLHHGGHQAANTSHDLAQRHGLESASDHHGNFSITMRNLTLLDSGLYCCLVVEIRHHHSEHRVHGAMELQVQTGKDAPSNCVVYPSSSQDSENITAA
Procedure: as §1

[2] = biological target: T4, Human PD-L2, His Tag (confirmed by SPR) (human, UniProt Q9BQ51 20-219)
T4 construct: Bought protein; also called human PD-L2 protein; ACRO PD2-H5220; not shown: His tag
T4 sequence (looked up): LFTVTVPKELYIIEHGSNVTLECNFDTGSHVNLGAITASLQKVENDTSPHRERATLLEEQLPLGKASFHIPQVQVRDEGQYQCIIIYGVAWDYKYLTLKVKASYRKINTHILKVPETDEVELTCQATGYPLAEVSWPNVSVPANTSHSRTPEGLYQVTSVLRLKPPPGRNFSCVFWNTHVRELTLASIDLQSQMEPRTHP
Procedure: as §1

Human B7-H7, His Tag = biological target: T5, Human B7-H7, His Tag (human, UniProt Q9UM44 23-344)
T5 construct: Bought protein; also called human B7-H7 protein; ACRO B77-H52H5; not shown: His tag
T5 sequence (looked up): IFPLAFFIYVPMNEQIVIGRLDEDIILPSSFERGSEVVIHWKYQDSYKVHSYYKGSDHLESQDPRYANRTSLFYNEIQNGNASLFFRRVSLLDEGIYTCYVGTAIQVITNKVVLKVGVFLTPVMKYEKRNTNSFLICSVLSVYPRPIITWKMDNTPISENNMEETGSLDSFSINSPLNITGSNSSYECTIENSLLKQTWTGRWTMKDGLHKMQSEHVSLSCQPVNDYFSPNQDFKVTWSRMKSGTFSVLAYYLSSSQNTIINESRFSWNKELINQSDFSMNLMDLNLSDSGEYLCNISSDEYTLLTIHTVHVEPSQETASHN
Procedure: as §1

Human B7-H2, His Tag = biological target: T6, Human B7-H2, His Tag (human, UniProt O75144 19-258)
T6 construct: Bought protein; also called human B7-H2 protein; ACRO B72-H5221; not shown: His tag
T6 sequence (looked up): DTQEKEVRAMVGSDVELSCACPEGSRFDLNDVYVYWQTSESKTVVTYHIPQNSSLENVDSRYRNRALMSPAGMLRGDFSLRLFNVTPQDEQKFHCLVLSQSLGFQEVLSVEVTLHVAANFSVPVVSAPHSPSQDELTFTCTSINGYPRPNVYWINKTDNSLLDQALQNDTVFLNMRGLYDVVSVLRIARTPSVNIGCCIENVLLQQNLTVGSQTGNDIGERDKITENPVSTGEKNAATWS
Procedure: as §1

[3] = biological target: T7, Human B7-2 protein, His Tag (human, UniProt P42081 24-247)
T7 construct: Bought protein; also called ACRO CD6-H5223; not shown: His tag
T7 sequence (looked up): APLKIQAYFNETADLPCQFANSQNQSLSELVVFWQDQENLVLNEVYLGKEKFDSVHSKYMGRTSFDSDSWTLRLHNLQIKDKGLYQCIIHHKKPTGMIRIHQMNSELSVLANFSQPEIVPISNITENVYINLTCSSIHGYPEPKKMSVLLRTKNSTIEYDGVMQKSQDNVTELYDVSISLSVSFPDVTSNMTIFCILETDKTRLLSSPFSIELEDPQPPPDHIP
Procedure: as §1

[4] = biological target: T8, Human B7-1 protein, His Tag (human, UniProt P33681 35-242)
T8 construct: Bought protein; also called ACRO B71-H5228; not shown: His tag
T8 sequence (looked up): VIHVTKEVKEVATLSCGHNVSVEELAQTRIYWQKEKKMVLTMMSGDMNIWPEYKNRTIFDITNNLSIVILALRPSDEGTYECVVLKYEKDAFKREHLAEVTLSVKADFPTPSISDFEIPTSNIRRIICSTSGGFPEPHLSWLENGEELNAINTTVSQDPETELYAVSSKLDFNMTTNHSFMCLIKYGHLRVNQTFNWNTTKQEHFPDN
Procedure: as §1

Measured: binding result

B1: W301088-1.145.16-z3-p1-uIgG1KV320 (antibody, V domains shown)
VH: QVQLQESGPGLVKPSQTLSLTCTVTDYSITGDYAWNWIRQHPGKGLEWIGYISYSGSTSYNPSLQSRVTISRDTSKNQFSLKLSSVTAADTAVYFCARSLGRRWYFVVWGQGTTVTVSS
VL: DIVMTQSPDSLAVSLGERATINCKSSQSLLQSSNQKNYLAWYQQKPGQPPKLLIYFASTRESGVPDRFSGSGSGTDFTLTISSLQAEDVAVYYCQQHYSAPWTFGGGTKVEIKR
notes: Humanized, PTM-removed (VL N027dQ) human IgG1 LALA kappa antibody; also called WBP301088; W301088-z3-p1
no binding: all assays above

Source: US20240148892A1 (DUALITY BIOLOGICS SUZHOU, published 2024)
